Source: article PMC6555819, “Comprehensive study of nuclear receptor DNA binding provides a revised framework for understanding receptor specificity”

Target: RARg:RXRa (Homo sapiens, UniProt P13631;P19793 full;full)
Test: no ligand; PBM; 270 nM : 90 nM RXRa; PBS pH 7.4, 2% milk, 0.02% Triton X-100, 1 mM DTT, BSA, 0.4 mg/ml salmon testes DNA
Settings: tags: His kept;His cleaved; copies: 1;1; label: surface-attached array probe
Method in brief: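 Ligand-free nuclear receptor dimers were bound for 1 h to custom Agilent 4×180K protein-binding microarrays. Detection used antibodies against each partner (one per run). Binding z-scores rest on regression-normalized fluorescence, with random background probes as the reference.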

RARg:RXRa, sequence (P13631 whole entry, chain 1 of 2): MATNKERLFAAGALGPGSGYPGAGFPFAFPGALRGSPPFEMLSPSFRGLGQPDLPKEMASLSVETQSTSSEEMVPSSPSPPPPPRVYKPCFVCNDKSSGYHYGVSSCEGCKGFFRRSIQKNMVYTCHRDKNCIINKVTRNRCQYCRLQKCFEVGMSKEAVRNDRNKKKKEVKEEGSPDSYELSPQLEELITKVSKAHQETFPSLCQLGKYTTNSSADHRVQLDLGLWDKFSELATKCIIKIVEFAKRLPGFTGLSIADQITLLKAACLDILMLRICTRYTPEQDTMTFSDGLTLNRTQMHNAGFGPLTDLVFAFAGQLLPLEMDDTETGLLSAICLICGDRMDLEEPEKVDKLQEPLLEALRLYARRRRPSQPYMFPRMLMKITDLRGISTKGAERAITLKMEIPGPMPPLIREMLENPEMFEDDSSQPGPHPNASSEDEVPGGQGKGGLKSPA
RARg:RXRa, sequence (P19793 whole entry, chain 2 of 2): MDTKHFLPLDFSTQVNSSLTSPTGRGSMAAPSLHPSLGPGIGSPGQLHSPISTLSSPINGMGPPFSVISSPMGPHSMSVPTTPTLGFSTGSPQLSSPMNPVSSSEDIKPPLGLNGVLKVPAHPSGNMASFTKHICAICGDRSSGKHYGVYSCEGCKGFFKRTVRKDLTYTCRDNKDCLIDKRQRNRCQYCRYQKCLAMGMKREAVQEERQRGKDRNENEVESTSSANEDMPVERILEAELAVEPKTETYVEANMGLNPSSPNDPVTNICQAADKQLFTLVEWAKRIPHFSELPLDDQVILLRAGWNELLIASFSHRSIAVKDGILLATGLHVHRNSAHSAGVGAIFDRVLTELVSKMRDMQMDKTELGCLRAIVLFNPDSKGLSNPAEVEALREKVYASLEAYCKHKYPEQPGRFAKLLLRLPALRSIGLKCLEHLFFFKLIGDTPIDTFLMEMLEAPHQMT

Row | Binder | binding signal
1 | NRC3_wobSeed98_DR4_G7A_o1 (dsDNA) DNA 1: GCACTAATTGGTCAGCTGAGGTCACACACAATTCGGGCGATTGACAGCGTAGAATGAAGG DNA 2: CCTTCATTCTACGCTGTCAATCGCCCGAATTGTGTGTGACCTCAGCTGACCAATTAGTGC | 4.44 PBM z-score against 500 random probes
2 | NRC3_wobSeed101_DR4_A24C_o1 (dsDNA) DNA 1: GCCCTTACGGGTCACTCCAGGTTCTAGCATCGGAGTGCGATTGACAGCGTAGAATGAAGG DNA 2: CCTTCATTCTACGCTGTCAATCGCACTCCGATGCTAGAACCTGGAGTGACCCGTAAGGGC | 4.14 PBM z-score against 500 random probes
3 | NRC3_wobSeed46_DR1_A8G_o1 (dsDNA) DNA 1: GCTTACCGAGGTGAAAGGTCGTTGATGCACGCCTTGGCGATTGACAGCGTAGAATGAAGG DNA 2: CCTTCATTCTACGCTGTCAATCGCCAAGGCGTGCATCAACGACCTTTCACCTCGGTAAGC | 4.52 PBM z-score against 500 random probes
4 | NRC3_wobSeed63_DR2_G25T_o1 (dsDNA) DNA 1: GCCGAACTAGGTCACCAGGACAGTTAAGAGGTTGGAGCGATTGACAGCGTAGAATGAAGG DNA 2: CCTTCATTCTACGCTGTCAATCGCTCCAACCTCTTAACTGTCCTGGTGACCTAGTTCGGC | 4.47 PBM z-score against 500 random probes
5 | NRC3_wobSeed63_DR2_T24C_o1 (dsDNA) DNA 1: GCCGAACTAGGTCACCAGGACAGCGAAGAGGTTGGAGCGATTGACAGCGTAGAATGAAGG DNA 2: CCTTCATTCTACGCTGTCAATCGCTCCAACCTCTTCGCTGTCCTGGTGACCTAGTTCGGC | 4.29 PBM z-score against 500 random probes
6 | NRC3_wobSeed110_DR4_A9G_o1 (dsDNA) DNA 1: GCTCTGCTGGGTCAACGATGGTCAGCTAATCTGCTAGCGATTGACAGCGTAGAATGAAGG DNA 2: CCTTCATTCTACGCTGTCAATCGCTAGCAGATTAGCTGACCATCGTTGACCCAGCAGAGC | 3.45 PBM z-score against 500 random probes
7 | NRC3_wobSeed135_DR5_G4C_o1 (dsDNA) DNA 1: GCCCAACTAGGTCATTGACAGGACAGTGAATAGTAAGCGATTGACAGCGTAGAATGAAGG DNA 2: CCTTCATTCTACGCTGTCAATCGCTTACTATTCACTGTCCTGTCAATGACCTAGTTGGGC | 4.34 PBM z-score against 500 random probes
8 | NRC3_wobSeed15_DR0_G16C_o1 (dsDNA) DNA 1: GCCGAACTAGGTCAACGACAGTGAATCTCCGCACGCGCGATTGACAGCGTAGAATGAAGG DNA 2: CCTTCATTCTACGCTGTCAATCGCGCGTGCGGAGATTCACTGTCGTTGACCTAGTTCGGC | 3.81 PBM z-score against 500 random probes
9 | NRC3_wobSeed88_DR3_T25C_o1 (dsDNA) DNA 1: GCTAGCCTAGGTCATGCGGGCCAGCATAGTGTCGGCGCGATTGACAGCGTAGAATGAAGG DNA 2: CCTTCATTCTACGCTGTCAATCGCGCCGACACTATGCTGGCCCGCATGACCTAGGCTAGC | 3.97 PBM z-score against 500 random probes
10 | NRC3_wobSeed88_DR3_A4G_o1 (dsDNA) DNA 1: GCTGGCCTAGGTCATGCGGGCCAGTATAGTGTCGGCGCGATTGACAGCGTAGAATGAAGG DNA 2: CCTTCATTCTACGCTGTCAATCGCGCCGACACTATACTGGCCCGCATGACCTAGGCCAGC | 3.93 PBM z-score against 500 random probes
11 | NRC3_wobSeed99_DR4_A26T_o1 (dsDNA) DNA 1: GCTCTCGGAGGACACGAAAGGTCAGTGCTCGACATCGCGATTGACAGCGTAGAATGAAGG DNA 2: CCTTCATTCTACGCTGTCAATCGCGATGTCGAGCACTGACCTTTCGTGTCCTCCGAGAGC | 4.39 PBM z-score against 500 random probes
12 | NRC3_wobSeed17_DR0_T6A_o1 (dsDNA) DNA 1: GCATAAGTAGGTTAGGGTCATTCAGAAAGTAGGGAAGCGATTGACAGCGTAGAATGAAGG DNA 2: CCTTCATTCTACGCTGTCAATCGCTTCCCTACTTTCTGAATGACCCTAACCTACTTATGC | 4.22 PBM z-score against 500 random probes
13 | NRC3_wobSeed5_DR0_A15G_o1 (dsDNA) DNA 1: GCCCTTACGGGTCAGGGTTATAGCACGGGTGGTACGGCGATTGACAGCGTAGAATGAAGG DNA 2: CCTTCATTCTACGCTGTCAATCGCCGTACCACCCGTGCTATAACCCTGACCCGTAAGGGC | 3.72 PBM z-score against 500 random probes
14 | NRC3_wobSeed86_DR3_G15T_o1 (dsDNA) DNA 1: GCGCTGCTAGGTCATGTTGGTCAGCTAACGGGTACGGCGATTGACAGCGTAGAATGAAGG DNA 2: CCTTCATTCTACGCTGTCAATCGCCGTACCCGTTAGCTGACCAACATGACCTAGCAGCGC | 3.75 PBM z-score against 500 random probes
15 | NRC3_wobSeed2_DR0_C25T_o1 (dsDNA) DNA 1: GCCCTAGTTGGTCAAGGTCACACATGCTATAGGTACGCGATTGACAGCGTAGAATGAAGG DNA 2: CCTTCATTCTACGCTGTCAATCGCGTACCTATAGCATGTGTGACCTTGACCAACTAGGGC | 4.31 PBM z-score against 500 random probes
16 | NRC3_wobSeed34_DR1_T4G_o1 (dsDNA) DNA 1: GCAGCGAAAGGTCGAAGGTGAGTATACCCACCCGAAGCGATTGACAGCGTAGAATGAAGG DNA 2: CCTTCATTCTACGCTGTCAATCGCTTCGGGTGGGTATACTCACCTTCGACCTTTCGCTGC | 4.41 PBM z-score against 500 random probes
17 | NRC3_wobSeed34_DR1_T19A_o1 (dsDNA) DNA 1: GCATCGAAAGGTCGAAGGAGAGTATACCCACCCGAAGCGATTGACAGCGTAGAATGAAGG DNA 2: CCTTCATTCTACGCTGTCAATCGCTTCGGGTGGGTATACTCTCCTTCGACCTTTCGATGC | 3.65 PBM z-score against 500 random probes

Row | Binder | binding signal
18 | NRC3_wobSeed50_DR2_C25A_o1 (dsDNA) DNA 1: GCCCTAGTTGGTCAGGAGGTCACAAACCGGATATGAGCGATTGACAGCGTAGAATGAAGG DNA 2: CCTTCATTCTACGCTGTCAATCGCTCATATCCGGTTTGTGACCTCCTGACCAACTAGGGC | 4.55 PBM z-score against 500 random probes
19 | NRC3_wobSeed75_DR3_A25C_o1 (dsDNA) DNA 1: GCTCTCGGAGGACACGAAGGTCAGCGCTTTCCAGAGGCGATTGACAGCGTAGAATGAAGG DNA 2: CCTTCATTCTACGCTGTCAATCGCCTCTGGAAAGCGCTGACCTTCGTGTCCTCCGAGAGC | 3.49 PBM z-score against 500 random probes
20 | NRC3_wobSeed123_DR5_A17C_o1 (dsDNA) DNA 1: GCCCTCGGAGGACAACCGGAGGTCAGAGCTGCCAGAGCGATTGACAGCGTAGAATGAAGG DNA 2: CCTTCATTCTACGCTGTCAATCGCTCTGGCAGCTCTGACCTCCGGTTGTCCTCCGAGGGC | 3.83 PBM z-score against 500 random probes
21 | NRC3_wobSeed74_DR3_C13G_o1 (dsDNA) DNA 1: GCTCTAGTTGGTGACGGAGGTCACACACGACGGGTAGCGATTGACAGCGTAGAATGAAGG DNA 2: CCTTCATTCTACGCTGTCAATCGCTACCCGTCGTGTGTGACCTCCGTCACCAACTAGAGC | 3.87 PBM z-score against 500 random probes
22 | NRC3_wobSeed82_DR3_C16G_o1 (dsDNA) DNA 1: GCATCGAAAGGTCGAGGAGGTGAGTATACACCGTTTGCGATTGACAGCGTAGAATGAAGG DNA 2: CCTTCATTCTACGCTGTCAATCGCAAACGGTGTATACTCACCTCCTCGACCTTTCGATGC | 4.27 PBM z-score against 500 random probes
23 | NRC3_wobSeed82_DR3_T21A_o1 (dsDNA) DNA 1: GCATCGAAAGGTCGACGAGGAGAGTATACACCGTTTGCGATTGACAGCGTAGAATGAAGG DNA 2: CCTTCATTCTACGCTGTCAATCGCAAACGGTGTATACTCTCCTCGTCGACCTTTCGATGC | 4.02 PBM z-score against 500 random probes
24 | NRC3_wobSeed82_DR3_T4A_o1 (dsDNA) DNA 1: GCAACGAAAGGTCGACGAGGTGAGTATACACCGTTTGCGATTGACAGCGTAGAATGAAGG DNA 2: CCTTCATTCTACGCTGTCAATCGCAAACGGTGTATACTCACCTCGTCGACCTTTCGTTGC | 4.09 PBM z-score against 500 random probes
25 | NRC3_wobSeed141_DR5_A25C_o1 (dsDNA) DNA 1: GCAGTCAAAGTTCAGGACGAGGTACCGTAAAGCACGGCGATTGACAGCGTAGAATGAAGG DNA 2: CCTTCATTCTACGCTGTCAATCGCCGTGCTTTACGGTACCTCGTCCTGAACTTTGACTGC | 4.17 PBM z-score against 500 random probes
26 | NRC3_wobSeed38_DR1_A25C_o1 (dsDNA) DNA 1: GCCCTGCTAGGTCAATGGTCAGCTCAAGCAGCTCGCGCGATTGACAGCGTAGAATGAAGG DNA 2: CCTTCATTCTACGCTGTCAATCGCGCGAGCTGCTTGAGCTGACCATTGACCTAGCAGGGC | 3.58 PBM z-score against 500 random probes
27 | NRC3_wobSeed4_DR0_T25G_o1 (dsDNA) DNA 1: GCCCTACTGGGCCAAGGTCATTGAGCAGTCAAAGCAGCGATTGACAGCGTAGAATGAAGG DNA 2: CCTTCATTCTACGCTGTCAATCGCTGCTTTGACTGCTCAATGACCTTGGCCCAGTAGGGC | 3.95 PBM z-score against 500 random probes
28 | NRC3_wobSeed64_DR2_o1 (dsDNA) DNA 1: GCTAGCCTAGGTCATTGGGCCAGTATAGTACGCATCGCGATTGACAGCGTAGAATGAAGG DNA 2: CCTTCATTCTACGCTGTCAATCGCGATGCGTACTATACTGGCCCAATGACCTAGGCTAGC | 3.78 PBM z-score against 500 random probes
29 | NRC3_wobSeed64_DR2_G17T_o1 (dsDNA) DNA 1: GCTAGCCTAGGTCATTTGGCCAGTATAGTACGCATCGCGATTGACAGCGTAGAATGAAGG DNA 2: CCTTCATTCTACGCTGTCAATCGCGATGCGTACTATACTGGCCAAATGACCTAGGCTAGC | 3.69 PBM z-score against 500 random probes
30 | NRC3_wobSeed64_DR2_C21T_o1 (dsDNA) DNA 1: GCTAGCCTAGGTCATTGGGCTAGTATAGTACGCATCGCGATTGACAGCGTAGAATGAAGG DNA 2: CCTTCATTCTACGCTGTCAATCGCGATGCGTACTATACTAGCCCAATGACCTAGGCTAGC | 3.53 PBM z-score against 500 random probes
31 | NRC3_wobSeed39_DR1_T23G_o1 (dsDNA) DNA 1: GCCGAACTAGGTCAAAGGACAGGGAAAGGCGACGTAGCGATTGACAGCGTAGAATGAAGG DNA 2: CCTTCATTCTACGCTGTCAATCGCTACGTCGCCTTTCCCTGTCCTTTGACCTAGTTCGGC | 4.06 PBM z-score against 500 random probes
32 | NRC3_wobSeed3_DR0_A22G_o1 (dsDNA) DNA 1: GCGCTCGGAGGACAAGGTCAGGGCTTTGTCCGTAGAGCGATTGACAGCGTAGAATGAAGG DNA 2: CCTTCATTCTACGCTGTCAATCGCTCTACGGACAAAGCCCTGACCTTGTCCTCCGAGCGC | 3.61 PBM z-score against 500 random probes
33 | NRC3_wobSeed87_DR3_C17G_o1 (dsDNA) DNA 1: GCCGAACTAGGTCATCGAGGACAGTGAATACATTGAGCGATTGACAGCGTAGAATGAAGG DNA 2: CCTTCATTCTACGCTGTCAATCGCTCAATGTATTCACTGTCCTCGATGACCTAGTTCGGC | 4.03 PBM z-score against 500 random probes
